Consider one protein from article PMC3964825 (Biochemistry, 2013).

The series “native MS” deals with the molecule itself. Kind of series: native MS.
The series “native gel or EMSA” deals with the molecule itself. Kind of series: native gel or EMSA. A general note: In EMSA bound probe runs differently from free probe, usually more slowly.

As usually defined, the stoichiometry N is the number of molecules, sites or subunits per partner or assembly.

Values joined by “and” are separate entries in the source; they are usually repeats but may differ in a detail not shown here. Equal values may be shown once.

B1: EZH2-EED heterodimer (FLAG-EZH2–6×HIS-EED) (complex)
chain 1: not shown
chain 2: not shown
In the case of B1, the “stoichiometry N” value in “native MS” is 2 and 3; in “native gel or EMSA” it was no more than 4.
